One test has as its target Insulin Receptor. Nature of the test: SPR; data not shown. In general terms: Surface plasmon resonance follows binding to a sensor surface in real time, without labels.
The target of test [1] is CI-MPR receptor. Put plainly: CIMPR binding assay, PPT1 conditioned media, dilution starting at 50 nM, bound PPT1 activity; the table prints no units, units of the axes.
Test [2] deals with CI-MPR receptor. Put plainly: CIMPR binding assay, PPT1 conditioned media, curves starting at 25 nM, bound PPT1 activity; the table prints no units, units of the axes.

As a reminder, the Kd is the free concentration of one partner at which half of the binding sites on the other are occupied at equilibrium, for simple one-to-one binding. High values mean weaker binding, low ones tighter binding. “Insulin (from UniProt P01308 25-54; P01308 90-110) (ligand)” yielded a Kd with Insulin Receptor of 8 nM.

For PPT1 control (enzyme), in the test with CI-MPR receptor [1], the Bmax was 54.4 nmol/mL/h and the Kd is 2.7 nM. In the test with CI-MPR receptor [2], the Bmax amounted to 54.5 nmol/mL/h and the dissociation constant Kd came out at 2.71 nM.

(Values after patent US20240091321A1.)
